Data: FireProtDB (doi:10.1021/bi500238q)

B1: Dihydrofolate reductase, Q5KZ26 (parent)
chain: MISHIVAMDENRVIGKDNRLPWHLPADLAYFKRVTMGHAIVMGRKTFEAIGRPLPGRDNVVVTRNRSFRPEGCLVLHSLEEVKQWIASRADEVFIIGGAELFRATMPIVDRLYVTKIFASFPGDTFYPPISDDEWEIVSYTPGGKDEKNPYEHAFIIYERKKAK

Variants of: B1
Details: Geobacillus kaustophilus (strain HTA426); pH 7; Thermal; CD; Potassium Phosphate Buffer 10 mM; structure 1ZDR; whole UniProt chain shown

Row | Variant | Tm | change of melting temperature, mutant - wild type (higher = more stable)
1 | P122E | 65.3 °C | -0.9 °C
2 | P129D | 64.6 °C | -1.6 °C
3 | P122E P129D | 65 °C | -1.2 °C
4 | L20M A104Q | 61.1 °C | -5.1 °C
5 | L20M | 61.4 °C | -4.8 °C
